Results on two molecules are retold here after US20250353912A1, “COMPOSITIONS AND METHODS COMPRISING ANTIBODIES THAT BIND TO COVALENT PEPTIDE CONJUGATES” (New York University, priority 2022, published 2025).

This experiment concerns the target osimertinib-EGFR/HLA-A*02 (Homo sapiens, UniProt P00533). Put plainly: Yeast-display binding of affinity matured clones. The settings on record: for binding to EGFR/HLA-A*02 (no drug-conjugation) / binding to osimertinib-EGFR/HLA-A*02: binding titration, FIG. 39; for inhibition of antigen binding by free drug: osimertinib-EGFR/HLA-A*02 10 nM, free osimertinib 1 μM, FIG. 40. As for the experimental part:
FIG. 40. Binding of EO_Q16 and EO_Q17 to osimertinib-EGFR/HLA-A*02 (10 nM) in the absence and presence of free osimertinib (1 μM), showing that antigen binding of these antibodies is not inhibited by the presence of free drug.
The binding partners described above in this Example show higher binding signals to osimertinib-EGFR/HLA-A*02, as tested in the yeast display format and as shown in FIGS. 39 and 40.

B1: EO_Q16: affinity matured clone of OEA2-5, osimertinib-EGFR on HLA-A*02 (antibody, V domains shown)
VH: EVQLVESGGGLVQPGGSLRLSCAASGFTISSSYIHWVRQAPGKGLEWVAYISPSYGSTSYADSVKGRFTISADTSKNTAYLQMNSLRAEDTAVYYCAREYVTMSIDYWGQGTLVTVSS
VL: DIQMTQSPSSLSASVGDRVTITCRASQSVSSAVAWYQQKPGKAPKLLIYSASSLYSGVPSRFSGSRSGTDFTLTISSLQPEDFATYYCQQYSDWPITFGQGTKVEIKRTV
As for B1, the “binding to EGFR/HLA-A*02 (no drug-conjugation)” value is reported as “not to the equivalent antigen without drug conjugation”, the “binding to osimertinib-EGFR/HLA-A*02” value is “high affinity” and the “inhibition of antigen binding by free drug” value was “not inhibited”.

B2: EO_Q17: affinity matured clone of OEA2-5, osimertinib-EGFR on HLA-A*02 (antibody, V domains shown)
VH: EVQLVESGGGLVQPGGSLRLSCAASGFTISSSYIHWVRQAPGKGLEWVAYISPSYGSTSYADSVKGRFTISADTSKNTAYLQMNSLRAEDTAVYYCARELVEMTPDYWGQGTLVTVSS
VL: DIQMTQSPSSLSASVGDRVTITCRASQSVSSAVAWYQQKPGKAPKLLIYSASSLYSGVPSRFSGSRSGTDFTLTISSLQPEDFATYYCQQYSSWPITFGQGTKVEIKRTV
Consider B2, for which the “binding to EGFR/HLA-A*02 (no drug-conjugation)” value is on record as “not to the equivalent antigen without drug conjugation”, the “binding to osimertinib-EGFR/HLA-A*02” value was “high affinity” and the “inhibition of antigen binding by free drug” value is listed as “not inhibited”.
